According to the supplement of paper PMC12764529:
± gives the half width of the 95% confidence interval.

Assays:
[1] = folding stability dG unfold from trypsin proteolysis; higher = more stable
Outline: (§1)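 K50 was inferred by Bayesian fitting of sequencing counts obtained after protease digestion of designed mini-proteins. Unfolding free energy was derived by comparison with a sequence-predicted unfolded-state K50 and a shared folded-state K50, for each protease or both combined. The mini-proteins were under 80 residues, had no cysteine, were carried in a PA-tagged cDNA display construct, and were kept only if AlphaFold2 dimer inter-PAE exceeded 15.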

[2] = folding stability dG unfold (combined trypsin and chymotrypsin); higher = more stable
Outline: as §1

[3] = folding stability dG unfold from chymotrypsin proteolysis; higher = more stable
Outline: as §1

Row | Sequence | folding stability dG unfold [1] | folding stability dG unfold [2] | folding stability dG unfold [3]
1 | SAGGSAGGSAKKKKKKFKIVKIEIEVEVVKDKKTNKYYVKVKIKIYLKGNKKEFEMEFVFPSAGGSAGGSAG [r3_424_TrROS_Hall] | 2.29 ± 0.24 kcal/mol | 3.37 ± 0.59 kcal/mol | 4.07 ± 0.24 kcal/mol
2 | SAGGSAGGSAKKKVEIKIEIEEVTNKDGKKYIKIKIEVKVSEEVKKELADALKKAGFKVEPSAGGSAGGSAG [r3_157_TrROS_Hall] | 1.54 ± 0.091 kcal/mol | 2.17 ± 0.16 kcal/mol | 2.43 ± 0.093 kcal/mol
3 | SAGGSAGGSAKKKYVFTIPVKPNTFNPEKLKKFIEKAFPEFKNYEIKVEVLPDGTAKVYIEASAGGSAGGSA [r18_65_TrMRF] | 2.69 ± 0.12 kcal/mol | 3.89 ± 0.24 kcal/mol | 4.4 ± 0.11 kcal/mol
4 | SAGGSAGGSAKKPPVYKIKIKVVNKKTKKEIEIEVEVKAGKTPEEIAKELAKKFGIEKVEIESAGGSAGGSA [r18_58_TrROS_Hall] | 1.14 ± 0.12 kcal/mol | 1.45 ± 0.27 kcal/mol | 1.47 ± 0.18 kcal/mol
5 | SAGGSAGGSAKPDPGAPYPWKIVEVVPIRIDMYFKFPGEPFKMDIEIPILVMVDPDNGKIFSAGGSAGGSAG [r3_391_TrROS] | 2.3 ± 0.11 kcal/mol | 2.7 ± 0.14 kcal/mol | 2.94 ± 0.064 kcal/mol
6 | SAGGSAGGSAKPKITVTVEEVTNEDGSTYYRATARIEETGRTIEIYVRRDDLGKPVAIKITSAGGSAGGSAG [r3_432_TrROS_Hall] | 1.82 ± 0.058 kcal/mol | 2.18 ± 0.12 kcal/mol | 2.4 ± 0.085 kcal/mol
7 | SAGGSAGGSAKPKLHIHILTAGPFEELAELLEELAKRIFPPELEIDIHIHYIPKELLHPELGSAGGSAGGSA [r18_498_TrMRF] | 2.74 ± 0.15 kcal/mol | 2.59 ± 0.077 kcal/mol | 2.51 ± 0.041 kcal/mol
8 | SAGGSAGGSAKPNNAELVKVTYDPETGDFYAFYKIKNTDTVYVLRFNKDGTVEVKEYKFSEASAGGSAGGSA [r18_521_TrMRF] | 2.96 ± 0.21 kcal/mol | 3.68 ± 0.17 kcal/mol | 3.96 ± 0.08 kcal/mol
9 | SAGGSAGGSAKPTFDNVENLSLEELAKKIAKEAAEKYPDAKNVEVEFRLPNGKSYRIVVDVDSAGGSAGGSA [r18_449_TrMRF] | 1.21 ± 0.036 kcal/mol | 1.26 ± 0.096 kcal/mol | 1.26 ± 0.12 kcal/mol
10 | SAGGSAGGSAKRKVIEVDSLEEIKKAIEEAKEGEVVEIVVRDPETNETYTLKVVDGKIVLIPSAGGSAGGSA [r18_407_TrROS_Hall] | 1.32 ± 0.039 kcal/mol | 2.27 ± 0.049 kcal/mol | 2.664 ± 0.014 kcal/mol
11 | SAGGSAGGSAKSVVRIKIYNKKTGKVLEIEIPENMTEEEIKKLAEELAKKNNVEIVEVEKVPSAGGSAGGSA [r18_322_TrROS_Hall] | 1.83 ± 0.051 kcal/mol | 2.63 ± 0.12 kcal/mol | 2.99 ± 0.051 kcal/mol
12 | SAGGSAGGSAKTITITFLFDSPENAKDFVREIAQEDGMKIKVEWERDPEGWWWVTATIEVPSAGGSAGGSAG [r3_273_TrROS] | 2.36 ± 0.1 kcal/mol | 3.14 ± 0.15 kcal/mol | 3.48 ± 0.13 kcal/mol
13 | SAGGSAGGSAKVVVDEVEVEVFKNEDGEEVLRVRFKKTGEEVEIPLEDLEKLELPPGAVVEPSAGGSAGGSA [r18_288_TrROS_Hall] | 0.246 ± 0.035 kcal/mol | 1.41 ± 0.07 kcal/mol | 1.84 ± 0.05 kcal/mol
14 | SAGGSAGGSAKYLVVGGKVIEIPSGGDAKIETTKDDRVKVTIDLPDDRKLEFTFPVPKWVGSAGGSAGGSAG [r3_207_TrMRF] | 0.514 ± 0.029 kcal/mol | 0.408 ± 0.07 kcal/mol | 0.215 ± 0.099 kcal/mol
15 | SAGGSAGGSALAEELAAKYPGLQVEVTRVEVEREVTDADGRKRTERVERLEIRVVKPGEELSAGGSAGGSAG [r3_358_TrROS_Hall] | 0.5 ± 0.034 kcal/mol | 0.164 ± 0.18 kcal/mol | -0.0574 ± 0.06 kcal/mol
16 | SAGGSAGGSALDSLVPDIDLRVRVEPVPDDPSILRADVELSDGLVLEVEFLPSGVARVSLSGKGSAGGSAGG [r6_122_TrMRF] | -0.0307 ± 0.084 kcal/mol | -0.0927 ± 0.058 kcal/mol | -0.246 ± 0.11 kcal/mol
17 | SAGGSAGGSALIIVAPDGFIISIEWPNGKPRTIMMPPDEIDEILEDDGIKDIEIQKLPPGASAGGSAGGSAG [r3_141_TrROS] | 0.388 ± 0.05 kcal/mol | 1.14 ± 0.074 kcal/mol | 1.49 ± 0.036 kcal/mol
18 | SAGGSAGGSALKPNETATIRILTTAPDGKPYVLVVEVRVLPDGGVEVLGYKLVTLSDLEKNSAGGSAGGSAG [r3_212_TrMRF] | 2.53 ± 0.11 kcal/mol | 3.32 ± 0.11 kcal/mol | 3.74 ± 0.082 kcal/mol
19 | SAGGSAGGSALPLPPDQRLYVFRDPEGDLYLVRFEDGSEVRTSLKAEDLEKLGVPVVDIGDLSAGGSAGGSA [r18_125_TrMRF] | 1.73 ± 0.035 kcal/mol | 1.66 ± 0.032 kcal/mol | 1.49 ± 0.037 kcal/mol
20 | SAGGSAGGSAMEELVKEAIKEGKPGEVVLIRNEDGSVFALTVKDGKIEIKKLEEVKEVVEESAGGSAGGSAG [r3_244_TrROS_Hall] | 1.45 ± 0.09 kcal/mol | 1.15 ± 0.17 kcal/mol | 1.06 ± 0.093 kcal/mol
21 | SAGGSAGGSAMEIEIEIEIPVPVPGGVPSPENPEVAEERAEEIKEKYAKEGLKVKVKITVVSAGGSAGGSAG [r3_258_JUSTAS] | 1.22 ± 0.21 kcal/mol | 1.07 ± 0.3 kcal/mol | 1.13 ± 0.061 kcal/mol
